Results as given in US20050239169.

T1: SELADIN-1
T1 chain: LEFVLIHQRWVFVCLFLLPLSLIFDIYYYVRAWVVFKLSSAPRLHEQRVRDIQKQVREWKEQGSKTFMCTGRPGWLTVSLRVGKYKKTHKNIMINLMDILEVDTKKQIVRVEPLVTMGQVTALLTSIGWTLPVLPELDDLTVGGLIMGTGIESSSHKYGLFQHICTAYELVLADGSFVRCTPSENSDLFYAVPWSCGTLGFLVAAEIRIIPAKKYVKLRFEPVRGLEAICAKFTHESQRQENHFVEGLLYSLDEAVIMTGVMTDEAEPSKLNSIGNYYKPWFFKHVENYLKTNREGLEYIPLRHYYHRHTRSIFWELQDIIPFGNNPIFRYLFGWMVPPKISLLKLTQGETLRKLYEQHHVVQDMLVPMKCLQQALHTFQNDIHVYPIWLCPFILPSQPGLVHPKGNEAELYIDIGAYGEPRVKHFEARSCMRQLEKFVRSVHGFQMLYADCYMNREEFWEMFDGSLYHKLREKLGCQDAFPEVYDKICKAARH


Target: T1, SELADIN-1

Protein	in vitro cleavage of SELADIN-1 (fragment sizes)
caspase 6 (protein) AFYKREMFDPAEKYKMDHRRRGIALIFNHERFFWHLTLPERRGTCADRDNLTRRFSDLGFEVKCFNDLKAEELLLKIHEVSTVSHADADCFVCVFLSHGEGNHIYAYDAKIEIQTLTGLFKGDKCHSLVGKPKIFIIQACRGNQHDVPVIPLDVVDNQTEKLDTNITEVDAASVYTLPAGADFLMCYSVAEGYYSHRETVNGSWYIQDLCEMLGKYGSSLEFTELLTLVNRKVSQRRVDFCKDPSAIGKKQVPCFASMLTKKLHFFPKSN	In vitro cleavage of SELADIN-1 by caspase 3 or 6 generated four different SELADIN-1 fragments of approximately 50, 40, 30 and 20 kDa, respectively
caspase 3 (protein) SGISLDNSYKMDYPEMGLCIIINNKNFHKSTGMTSRSGTDVDAANLRETFRNLKYEVRNKNDLTREEIVELMRDVSKEDHSKRSSFVCVLLSHGEEGIIFGTNGPVDLKKITNFFRGDRCRSLTGKPKLFIIQACRGTELDCGIETDSGVDDDMACHKIPVEADFLYAYSTAPGYYSWRNSKDGSWFIQSLCAMLKQYADKLEFMHILTRVNRKVATEFESFSFDATFHAKKQIPCIVSMLTKELYFYH	In vitro cleavage of SELADIN-1 by caspase 3 or 6 generated four different SELADIN-1 fragments of approximately 50, 40, 30 and 20 kDa, respectively
